For orientation: Kd means the equilibrium constant for the complex coming apart.

For assay [1], the target named is T1, IGFBP7 (recombinant; preparation not specified) (UniProt Q16270 27-282).
T1 construct: also called immobilized IGFBP7; recombinant IGFBP7
T1 sequence (looked up): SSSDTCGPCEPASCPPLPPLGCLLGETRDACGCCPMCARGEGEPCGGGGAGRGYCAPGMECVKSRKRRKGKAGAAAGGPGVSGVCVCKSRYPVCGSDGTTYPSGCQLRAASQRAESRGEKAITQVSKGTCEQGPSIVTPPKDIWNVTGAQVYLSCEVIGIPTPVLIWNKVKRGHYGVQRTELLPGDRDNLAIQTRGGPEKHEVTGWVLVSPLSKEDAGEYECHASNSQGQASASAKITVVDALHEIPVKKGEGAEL
The experiment in a line: SPR, fit to a steady state model. For orientation: In SPR one partner is held on a chip, and binding of the other changes the refractive index at the surface.

Assay [2] deals with T2, recombinant custom-synthesized IGFBP7 (UniProt Q16270 27-282).
T2 construct: also called custom-synthesized recombinant IGFBP7
T2 sequence (looked up): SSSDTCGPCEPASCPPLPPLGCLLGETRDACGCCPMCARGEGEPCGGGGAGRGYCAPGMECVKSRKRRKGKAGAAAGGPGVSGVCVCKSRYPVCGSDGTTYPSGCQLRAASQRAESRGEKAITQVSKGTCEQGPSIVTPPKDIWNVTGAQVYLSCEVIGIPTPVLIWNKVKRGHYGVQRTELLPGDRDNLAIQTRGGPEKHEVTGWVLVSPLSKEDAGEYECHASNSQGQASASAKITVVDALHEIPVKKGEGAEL
The assay can be described thus: SPR, steady state analysis, IGFBP7 as ligand.

In assay [3] the target is T3, recombinant protein IGFBP7 from R&D (UniProt Q16270 27-282).
T3 construct: Bought protein immobilized on the Biacore chip; also called recombinant IGFBP7
T3 sequence (looked up): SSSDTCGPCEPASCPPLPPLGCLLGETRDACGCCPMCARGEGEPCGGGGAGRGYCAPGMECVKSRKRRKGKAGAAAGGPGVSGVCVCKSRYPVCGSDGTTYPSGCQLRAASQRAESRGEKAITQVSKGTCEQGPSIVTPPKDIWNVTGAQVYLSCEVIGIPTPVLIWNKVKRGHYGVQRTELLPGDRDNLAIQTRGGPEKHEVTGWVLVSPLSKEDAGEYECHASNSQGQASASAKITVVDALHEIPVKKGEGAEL
The assay can be described thus: SPR, steady state analysis, IGFBP7 as ligand.

The target in assay [4] is T3, recombinant protein IGFBP7 from R&D. The assay can be described thus: SPR, steady state analysis as Scatchard plot, IGFBP7 as ligand.

B1: sdAb clone 4.6-IGFBP7 (VHH)
VHH: QVKLEESGGGSVQPGGSLRLSCAASGRTFSRLAMGWFRQAPGKERELVAGISRSGDGTHYAYSVKGRFTISRDNAANTVELQMNSLKPEDTAVYFCAAARTAFYYYGNDYNYWGQGTQVTVSS
notes: also called IGFBP7-4.6; not shown: c-Myc detection tag and 5xHis purification tag added at the C-terminus by vector pSJF2
B1: the Kd in assay [1] was approximately 1000 nM.

B2: sdAb clone 4.43-IGFBP7 (VHH)
VHH: QVKLEESGGGLVQAGGSLRLSCAASGRTSRRYAMGWFRQAPGKEREFVAGISRSGDGTHYAYSVKGRFTISRDNAANTVELQMNSLKPEDTAVYFCAAARTAFYYYGNDYNYWGQGTQVTVSS
notes: not shown: c-Myc detection tag and 5xHis purification tag added at the C-terminus by vector pSJF2
In the case of B2, the equilibrium dissociation constant (Kd) is 30 nM in assay [2], 40 nM in assay [3] and 50 nM in assay [4].
